Laboratory results reported in publication PMC3354570 (Structure(London, England:1993), 2012).

Target: the molecule itself
Assay: AUC

B1: human apolipoprotein A-IV core domain, residues 64-335 (domain or fragment, UniProt P06727 84-355, looked up)
chain: ATELHERLAKDSEKLKEEIGKELEELRARLLPHANEVSQKIGDNLRELQQRLEPYADQLRTQVSTQAEQLRRQLTPYAQRMERVLRENADSLQASLRPHADELKAKIDQNVEELKGRLTPYADEFKVKIDQTVEELRRSLAPYAQDTQEKLNHQLEGLTFQMKKNAEELKARISASAEELRQRLAPLAEDVRGNLRGNTEGLQKSLAELGGHLDQQVEEFRRRVEPYGENFNKALVQQMEQLRQKLGPHAGDVEGHLSFLEKDLRDKVNSFF
- stoichiometry N: 2
